# Experimental data from the nanobody polyreactivity screen of Harvey et al. (2022).
# Experiment: yeast display, Sf9 membrane polyspecificity reagent, FACS + sequencing; frameworks hold sequencing errors
# Method in brief: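 After 36–48 hours of galactose induction, yeast (Saccharomyces cerevisiae BJ5465) displaying a synthetic nanobody library were stained at 4 °C for 1 hour with 10% biotinylated, detergent-solubilized Sf9 membrane reagent. Streptavidin microbeads enriched the stained cells before FACS sorting into low and high (top ~1%) gates on anti-HA and streptavidin fluorescence. Each clone's polyreactivity label reflects its gate of origin.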
row,Sequence,polyreactivity (PSR sort gate)
1,QVQLVESGGGLVQAGGILRLSCAASGSTFQSNAMGWYRQAPGKERELVAAISSSAGTTFYADSVKGRFTISRDNAKNTVYLQMNSLKPEDTAVYYCAKKDFYFAPSPGYYRSRDYWGQGTQVTVSS,low polyreactivity
2,QVQLVESGGGLVQAGGSLRLSCAASGRTFQLYAMGWYRQAPGKERELVAAITSGGNTYYADSVKGRFTISRDNAKNTVYLQMNSLKPVDTAVYYCFLYYSRSMGYWGQGTQVTVSS,high polyreactivity
3,QGHLVESGGGLFQAGGSLRLSCAASGSILSYYALGRYRQAPGKEMEMVAVINSGGRTNYADAVKGRFTISRDNAKYTVYLQMNSLKTEDTAVYDCAAQGYFVDRAGRYYRVDYRGQGTQVTVSS,high polyreactivity
4,QVQLVESGGGLVQAGGSLRLSCAASGSIFFYYAMGWYRQAPGKERELVAAIDFNGGNTYYADSVKGRFTISRDNAKNTVYLQMNSLKPEDTAVYYCAAEWEGTYTTVPDEFNYWGQGTQVTVSS,high polyreactivity
5,QVLLVESAVGLVQAVGSLRLSCAASGSICYTNGMGWYRQAPGNERELVASITRSGGSTYYADSVKGRFTISRDNAKNSVYLQMNRLKPEDTAVYYCATSWGYRGLWGLRFDYWGQGTQVSVSS,low polyreactivity
6,QVQLVESGGGLVQAGGSLRLSCAASGLIFYDNMGGYRQAPGKERELVAAISSSGGSTSYADSVKGRFTISRDNAKNTVSLQMNSLNPEDSAVYYCTVSPGVWRSIPLYYNLLYGYWGQGTQVTVSS,low polyreactivity
7,QVQLVESGGGLVQAGGSLRLSCAASGFTFYYNAMGWYRQAPGKERELVAIRFRGGNTYYADSVKGRFTISRDNAKNTVYLQMNSLKPEDTAVYYCNADDRGSTYVEFDYWGQGTQVTVSS,low polyreactivity
8,QVQLVESGGGLVQAGGSLRLSCAASRRTYKYNAMGWYRQAPGKEREVVAAISRSGGSTYYADSVKGRFTISRDNAKNTVYLQMNILKPEDTAVYDCAVSYRPGGYRRHFRYVYWGQGTQVTVSS,high polyreactivity
9,QVQLVESGGGLVQAGGSLRLSCAASGNIFGTYAMGWSRQAPRKERELVATISNDDRTNYADSVKGRFTISRDNAKNTVYFQMNSLKPADTAVYYCAVEYPSIAYRKSSKTFDYWGQGTQVTVSS,low polyreactivity
10,QVQLVESGGGLVQAGGSLRLSCAASGRTFTSNAMGWYRQAPGKERELVAAISNRGTRTYYADSVKGRFTISRDNAKNTVYLQMNSLKPEDTAVYYCAARVSTVFKRYYYWGQGTQVTVSS,high polyreactivity
11,QVQLVESGGGLVQAGGSLRLTCAASGSIFVGYAMGWYREAPGKEMELVAAITTRGDTTYYADSVKGRFTISRDNAKNTVYLQMNSLKPEHTAVYYCNTTSFFQAWPSDVQYDYWGQGTQVTVSS,low polyreactivity
12,QVQLVESGGGLVQAGGSLRLSCAASGRIFSYNAMGWYRQAPGKERELVAAIRVRGGSTYYADSVKGRFTLSRDNAKNTVYLQMNSLKPEDTAVYYCNASDYKISATNAVVRYYYWGQGTQVTVSS,high polyreactivity
13,QVQLQESGGGLVQAGGSLRLSCAASGNIVDADIMGWYRQAPGKERELVASITDGGSTNYADSEKGRFTICRDNAKNTVYLQMNSVKPEDTAVYYCAAMAYPDIPTSFDYDSEYFYWGQGTQVKVSS,low polyreactivity
14,QVQLVESGGGLVQEGGSLRLICAASGRTLYHYVMGWYSQAPGKERELVAAISSGGSTYYADSVKGRFTISRDNAKNTVYLQMNSLKPEDTAVYFCAAGRRGDWGQGTQVTVSS,high polyreactivity
15,QVQLEESGGGLVQAGGSLRLSCAASGRTFRINAMGLYRQAPGKERELVAAIRSRAGSTYYADSVKGRFTISRDNAKNTVYLQMNSLKPEDTAVYYCAAKLPFDVDYWGQGTQVTVSS,high polyreactivity
16,QVQHVESVGGLVQAGGSLRLSCAASGFISDWYAMGWYRQAPGKERELVATIDWIGGSTYADSVKGRFTISRDNAKNTVYLQMNSLKPEDTAVYYCAADSYFIAWYGAHYAYDYWGQGTQVTVSS,low polyreactivity
17,QVQLVESGGGLVQAGGSLRLSCAASGRTFVKNAMGWYRQAPGKERELVAAISSSGGSTYYADSVKGRFTISRDNAKNTVYLQMNSLKPEDTAVYYCNRYSRLYLTDDDYWGQGTQVTVSS,high polyreactivity
